Like-named read-outs stand apart in the source and are kept apart here.
Legend:
[1] = target: T1, SARS-CoV-2 spike RBD (WT) (Severe acute respiratory syndrome …, UniProt P0DTC2); experiment: BLI
[2] = target: T1, SARS-CoV-2 spike RBD (WT); experiment: ELISA; set-up: unit not given here
[3] = target: T1, SARS-CoV-2 spike RBD (WT); experiment: BLI; remark: listed apart in the source

Binder | Kd [1] | binding score [2] | Kd [3]
D051 (antibody, V domains shown) VH: QVQLQQWGAGLLKPSETLSLTCAVYGGSFSDYYWTWIRQAPGKGLEWIGEINHSGSTNYNPSLKSRVTISVDTSKSQFSLSLTSVTAADTAVYYCARGRRYCNSLSCPYYFYFYMDVWDKGTTVTVSS VL: DIQMTQSPSSVSASVGDRVTITCRASQGISSWLAWYQQKPGKAPKLLIYAASSLQSGVPSRFSGSGSGTDFTLTISSLQSEDFATYYCQQANSFPRTFGQGTRLEIK | 2240 nM | > 10000 | –
C2721 (antibody, V domains shown) VH: EVQLVESGGGLIQPGGSLRLSCAASGFTVSSNYMSWVRQAPGKGLEWVSVIYSGGSTYYADSVKGRFTISRDNSKNTLYLQMNSLRAEDTAVYYCARDMGGDAFDIWGQGTMVTVSS VL: DIQLTQSPSFLSASVGDRVTITCRASQGISSYLAWYQQKPGKAPKLLIYAASTLQSGVPSRFSGSGSGTEFTLTISSLQPEDFATYYCQQLNSYPFFGGGTKVEIK | 98.5 nM | 174 | –
D002 (antibody, V domains shown) VH: EVQLVQSGAEVKKPGESLKISCKASGYNFTTSWIGWVRQMPGKGLEWMGIIYPGDFDTTYSPSFQGQVTISADKSISTAYLQWSSLKASDTAMYYCARVGPTAGTDGYNYLDWYFDLWGRGTLVTVSS VL: SYELTQPPSVSVSPGQTARITCSGDALPKQFSYWYQQKPGQAPVLVIYKDNERPSGIPERFSGSSSGTTVTLTISGVQAEDEADYYCQSADSISWVFGGGTKLTVL | 465 nM | 3640 | –
D164 (antibody, V domains shown) VH: QVQLVQSGAEVKKPGASVKVSCKASGYTFTSYYMHWVRQAPGQGLEWMGIINPSGGSTSYAQKFQGRVTMTRDTSTSTVYMELSSLRSEDTAVYYCARGGIVPAATENFDYWGQGTLVTVSS VL: EIVLTQSPATLSLSPGERATLSCRASQSVSSYLAWYQQKPGQAPRLLIYDASNRATGIPARFSGSGSGTDFTLTISSLEPEDFAVYYCQQRSNWPITFGQGTRLEIK | 194 nM | 63.2 | –
C2724 (antibody, V domains shown) VH: not shown VL: EIVLTQSPATLSLSPGERATLSCRASQSVSSYLAWYQQKPGQAPRLLIYDASNRATGIPARFSGSGSGTDFTLTISSLEPEDFAVYYCQQRSNCPLTFGGGTKVEIK | 174 nM | 604 | –
B05 (antibody, V domains shown) VH: QVQLKQSGAELVRPGASVKLSCKASGYTFTDYYINWVKQRPGQGLEWIARIYPGSGNPYYNEKFKGKATLTAEKSSSTAYMQLSSLTSEDSAVYFCARRGTLLYAFAYWGQGTLVTVSA VL: not shown | – | – | 68.5 nM
D070 (antibody, V domains shown) VH: EVQLVESGGGLVQPGGSLRLSCAASGFTFSSYEMNWVRQAPGKGLEWVSYISSSGSTIYYADSVKGRFTISRDNAKNSLYLQMNSLRAEDTAVYYCARVPRGYYDSSGYYYVGYYFDYWGQGTLVTVSS VL: DIQLTQSPSFLSASVGDRVTITCRASQGISSYLAWYQQKPGKAPKLLIYAASTLQSGVPSRFSGSGSGTEFTLTISSLQPEDFATYYCQQLNSYTFTFGPGTKVDIK | 115 nM | 716 | –
C2719 (antibody, V domains shown) VH: EVQLVESGGGLIQPGGSLRLSCAASGFTVSSNYMSWVRQAPGKGLEWVSVIYSGGSTYYADSVKGRFTISRDNSKNTLYLQMNSLRAEDTAVYYCARDLGPYGMDVWGQGTTVTVSS VL: DIQLTQSPSFLSASVGDRVTITCRASQGISSYLAWYQQKPGKAPKLLIYAASTLQSGVPSRFSGSGSGTEFTLTISSLQPEDFATYYCQQLNSYPPEIGQGTRLEIK | 127 nM | 59.3 | –
A47 (antibody, V domains shown) VH: HVQLQQPGAELVKPGASVKVSCKASGYTFTSFWMHWVKQRPGQGLEWIGGIHPSDSDTNYNQKFKGKATLTVNKSSSTAYMQLSSLTSEDSAVYYCAIGDECANWGQGTLVTVSA VL: DIVLTQSPASLAVSLGQRATISCRASKSVSTSGYSYMHWYQQKPGQPPKLLIYLASNLESGVPARFSGSGSGTDFTLNIHPVEEEDAATYYCHHSRELPFTFGSGTKLEIK | – | – | 142 nM
C2727 (antibody, V domains shown) VH: EVQLVESGGGLIQPGGSLRLSCAASGFTVSSNYMSWVRQAPGKGLEWVSVIYSGGSTYYADSVKGRFTISRDNSKNTLYLQMNSLRAEDTAVYYCAREGPQKTDWGQGTLVTVSS VL: not shown | 99.6 nM | 20 | –
D046 (antibody, V domains shown) VH: EVQLVESGGGLVQPGGSLRLSCAASGFTFSSYWMHWVRQAPGKGLVWVSRINSDGSSTSYADSVKGRFTISRDNAKNTLYLQMNSLRAEDTAVYYCARGVPHDYGDYESVILAGYYYYYYGMDVWGQGTTVTVSS VL: not shown | 42.4 nM | 6.02 | –
A09 (antibody, V domains shown) VH: QVQLQQPGAELVKPGASVKVSCKASGYTFTSYWMHWVKQRPGQGLEWIGRIHPSDSDTNYNQKFKGKATLTVDKSSSTAYMQLSSLTSEDSAVYSCARGMDYWGQGTSVTVSS VL: DVVLTQTPLSLPVNIGDQASISCKSTKSLLNSVGFTYLDWYLQKPGQSPQLLIYLVSNRFSGVPDRFSGSGSGTDFTLKISRVEAEDLGVYYCFQSNYLPYTFGGGTKLEIK | – | – | 30.2 nM
B32 (antibody, V domains shown) VH: QVQLQQSGPELVKPGASVKISCKASGYAFSSSWMNWVKQRPGKGLEWIGRIYPGDGDTNYNGKFKGKATLTADKSSSTAYMQLSSLTSEDSAVYFCARELDPPWGQGTTLTVSS VL: DILMTQSPSSMSVSLGDTVSITCHASQGISSNIGWLQQKPGKSFKGLIYHGTNLEDGVPSRFCGSGSGADYSLTISSLESEDFADYYCVQYAQFPFTFGSGTKLEIK | – | – | 95.8 nM
C2736 (antibody, V domains shown) VH: QVQLVQSGAEVKKPGSSVKVSCKASGGTFSSYAISWVRQAPGQGLEWMGGIIPIFGTANYAQKFQGRVTITADESTSTAYMELSSLRSEDTAVYYCASCRYYYDSSGYAQPEDYFDYWGQGTLVTVSS VL: QSVLTQPPSVSGAPGQRVTISCTGSSSNIGAGYDVHWYQQLPGTAPKLLIYGNSNRPSGVPDRFSGSKSGTSASLAITGLQAEDEADYYCQSYDSSLSGSHVVFGGGTKLTVL | 6.14 nM | 79.9 | –
B27 (antibody, V domains shown) VH: EVKLEESGGGLVQPGGSMKLSCAASGFTFSDAWMDWVRQSPEKGLEWVAEIRNKANNHATYYAESVKGRFTISRDDSKSSVYLQMNSLRAEDTGIYYCTNYKYYAMDYWGQGTSVTVSS VL: QIVLTQSPAIMSASPGEKVTMTCSASSSVSYMYWYQQKPGSSPRLLIYDTSNLASGVPVRFSGSGSGTSYSLTISRMEAEDAATYYCQQWSSYPLTFGAGTKLELK | – | – | 120 nM
D147 (antibody, V domains shown) VH: QVQLVESGGGVVQPGRSLRLSCAASGFTFSSYGMYWVRQAPGKGLEWVAVISYDGSNKYYADSVKGRFTISRDNSKNTLYLQMNSLRAEDTAVYYCAKGGGEYCSGGNCYSSYFDYWGQGTLVTVSS VL: not shown | 94.2 nM | 7.89 | –
C2748 (antibody, V domains shown) VH: QVQLVQSGAEVKKPGSSVKVSCKASGGTFTNYAISWVRQAPGQGLEWMGGIIPIFGTEDYAQRFQGRVTITADESTSTAYMELTSLTSEDTAVYFCARGLPLTVTTRRRFNFFDYWGQGTLVTVSS VL: not shown | 2.4 nM | 11.7 | –
D159 (antibody, V domains shown) VH: QVQLVESGGGVVQPGGSLRLSCAASGFTFSTYGMHWVRQAPGKGLEWVAFIQYDGSNKYYADSVKGRFTISRDNSKNTLCLQMNTLRAEDTAVYYCAKDLYYYGSGSYFDYWGQGTLVTVSS VL: not shown | 16.9 nM | 59.9 | –
C2699 (antibody, V domains shown) VH: QLQLQESGPGLVKPSETLSLTCTVSRGSISSSSYYWGWIRQPPGKGLEWIGSIYYSGNTYYNPSLKSRVTISVDTSNNQFFLKLSSVTAADTAVYYCARRPNSGWGYWYFDLWGRGTLVTVSS VL: not shown | 74 nM | 334 | –
B33 (antibody, V domains shown) VH: EVQLQQSGPELVKPGTSVKISCKASGYSFTGYYMNWVKQSPEKSLEWIGEINPSTGGTTYNQKFKAKATLTVDKSSSTAYMQLKSLTSEDSAVYYCARADYWGQGTTLTVSS VL: DIVLTQSPASLAVSLGQRATISCRASESVEYYVTSLMQWYQQKPGQPPKLLIYAASNVESGVPARFSGSGSGTDFSLNIHPVEEDDIAMYFCQQSREVPYTFGGGTKLEIK | – | – | 72.7 nM
D049 (antibody, V domains shown) VH: EVQLVQSGAEVKKPGESLKISCKGSGYSFISHWIGWVRQMPGKGLEWMGIIYPGDSDTRNSPSFQGQVTISADKSISTAYLQWSSLKASDTAMYYCARLLGSNYEVGFDYWGQGTLVTVSS VL: not shown | 9.69 nM | 6.28 | –
A24 (antibody, V domains shown) VH: DVQLQESGPGLVKPSQSLSLTCSVTGYSITSGYYWNWIRQFPGNKMEWMGYITYDGRNTYNPSPKNRLSITRDTSKNQFFLKLNSVTTEDTATYYCARCHYYGSSYAMDYWGQGTSVTVSS VL: DIVMTQSHKFMSTSVGDRVSITCKASQDVSTAVAWYRQKPGQSPKLLIYWASTRHTGVPDRFTGSGSGTDYTLTISSVQPEDLALYYCQQHYTTPLTFGAGTKLELK | – | – | 205 nM
C2743 (antibody, V domains shown) VH: QVQLVQSGAEVKKPGASVKVSCKASGYTFTSYGISWVRQAPGQGLEWMGWISAYNGNTNYAQKLQGRVTMTTDTSTSTAYMELRSLRSDDTAVYYCARDFGELATPLDYWGQGTLVTVSS VL: EIVLTQSPATLSLSPGERATLSCRASQSVSSYLAWYQQKPGQAPRLLIYDASNRATGIPARFSGSGSGTDFTLTISSLEPEDFAVYYCQQRSNSLTFGGGTKVEIK | 18.5 nM | 14.3 | –
D064 (antibody, V domains shown) VH: EVQLVQSGAEVKKPGESLKISCKGSGYSFTSYWIGWVRQMPGKGLEWMGIIYPGDSDTRYSPSFQGQVTISADKSISTAYLQWSSLKASDTAMYYCASHAGGYDFDYYYMDVWGKGTTVTVSS VL: not shown | 344 nM | 1230 | –

— PMC9876794 (2022)
